From patent US20220089710A1, “Method of Treating Signs and Symptoms of Osteoarthritis” (Pfizer Inc., priority 2019, published 2022)

Test system: patients with osteoarthritis (OA) of the knee or hip
Experiment: Example 3: treatment-emergent adverse events and deaths, Safety Population;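 further: seven SC injections given 8 weeks apart plus twice-daily oral study medication up to Week 56, Safety Population of all patients dosed at least once SC, analyzed by treatment actually received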
Experimental: Patients received a total of seven SC injections, each separated by 8 weeks and daily oral (PO) study medication BID through Week 56.
The Intent-to-Treat (ITT) Population included all patients who were randomized and received at least one dose of SC study drug. This analysis set was primary for all efficacy endpoints, which were analyzed according to randomization assignment. The Safety Population included all patients who received at least one dose of SC study treatment. This analysis set was primary for all safety endpoints, which were analyzed according to treatment received.

## tanezumab: humanized immunoglobulin G Type 2 (IgG2) monoclonal antibody directed against human nerve growth factor (NGF); SEQ ID NOs: 9 or 11 and 10
2.5 mg SC, during the safety follow-up period
  deaths: patients: 2
2.5 mg SC, during the treatment period
  deaths: patients: 2
2.5 mg SC, treatment period
  Adverse Event: % of patients: 62.8%
  Adverse Event: number of patients: 629
  Arthralgia: % of patients: 13.3%
  Arthralgia: number of patients: 133
  Back pain: % of patients: 3.4%
  Back pain: number of patients: 34
  Discontinued from study (adverse event): % of patients: 2.3%
  Discontinued from study (adverse event): number of patients: 23
  Discontinued study drug and continued study (adverse event): % of patients: 5.3%
  Discontinued study drug and continued study (adverse event): number of patients: 53
  Fall: % of patients: 6.5%
  Fall: number of patients: 65
  Headache: % of patients: 5.6%
  Headache: number of patients: 56
  Joint swelling: % of patients: 4.3%
  Joint swelling: number of patients: 43
  Musculoskeletal pain: % of patients: 4.3%
  Musculoskeletal pain: number of patients: 43
  Nasopharyngitis: % of patients: 5.7%
  Nasopharyngitis: number of patients: 57
  Osteoarthritis: % of patients: 3.9%
  Osteoarthritis: number of patients: 39
  Pain in extremity: % of patients: 3.1%
  Pain in extremity: number of patients: 31
  Paraesthesia: % of patients: 1.8%
  Paraesthesia: number of patients: 18
  Peripheral edema: % of patients: 1.9%
  Peripheral edema: number of patients: 19
  Rapidly progressive osteoarthritis (adverse event): % of patients: 1.8%
  Rapidly progressive osteoarthritis (adverse event): number of patients: 18
  Serious AE Acute kidney injury: n: 0
  Serious AE Acute myocardial infarction: %: 1.0%
  Serious AE Acute myocardial infarction: n: 1
  Serious AE Arthralgia: %: 0.4%
  Serious AE Arthralgia: n: 4
  Serious AE Cellulitis: n: 0
  Serious AE Cerebrovascular accident: %: 0.2%
  Serious AE Cerebrovascular accident: n: 2
  Serious AE Gastrointestinal hemorrhage: n: 0
  Serious AE Intervetebral disc protrusion: n: 0
  Serious AE Meniscus injury: %: 0.1%
  Serious AE Meniscus injury: n: 1
  Serious AE Osteoarthritis: %: 0.9%
  Serious AE Osteoarthritis: n: 9
  Serious AE Osteonecrosis: n: 0
  Serious AE Pneumonia: %: 0.1%
  Serious AE Pneumonia: n: 1
  Serious AE RPOA: %: 0.3%
  Serious AE RPOA: n: 3
  Serious AE Subchondral insufficiency fracture: %: 0.1%
  Serious AE Subchondral insufficiency fracture: n: 1
  Serious Adverse Event (any event): % of patients: 5.1%
  Serious Adverse Event (any event): number of patients: 51
  Severe Adverse Event: % of patients: 4.5%
  Severe Adverse Event: number of patients: 45
  Upper respiratory tract infection: number of patients: 57
5 mg SC, after patient discontinuation from the study
  deaths: patients: 1
5 mg SC, during the safety follow-up period
  deaths: patients: 1
5 mg SC, during the treatment period
  deaths: patients: 3
5 mg SC, treatment period
  Adverse Event: % of patients: 67.1%
  Adverse Event: number of patients: 670
  Arthralgia: % of patients: 16.5%
